Format in all cases: biochemical, Quillaja saponaria
The nature of assay [1]: Experiment 6-1: screening of rhamnosidases for derhamnosylation of saponins in treated bark extract (2%), QS-17 2296 to QS-18 2150 (PAR %). The following applies: TBE 2%, pH 7.5, 30 degC, 18 h; TIC peak area ratio percent of rhamnosylated starting saponin to derhamnosylated product, LCMS/MS; negative controls 4.876, 5.225.
Assay [2] in a line: Experiment 6-1: screening of rhamnosidases for derhamnosylation of saponins in treated bark extract (2%), desglucosyl-QS-17 2134 to QS-21 1988 (PAR %). The following applies: TBE 2%, pH 7.5, 30 degC, 18 h; TIC peak area ratio percent, LCMS/MS; negative controls 2.719, 2.158.
Assay [3] can be described thus: Experiment 6-1: screening of rhamnosidases for derhamnosylation of saponins in treated bark extract (2%), QS-17 2310 to QS-18 2164 (PAR %). The following applies: TBE 2%, pH 7.5, 30 degC, 18 h; TIC peak area ratio percent, LCMS/MS; negative controls 3.061, 2.429.
The nature of assay [4]: Experiment 6-2: screening of rhamnosidases for derhamnosylation of saponins in treated bark extract (25%), relative % of Left, Middle and Right Peak by UV HPLC. The following applies: TBE 25%, pH 7.4, 19.5 h; for Left Peak: mainly QS-17 family, negative control 24%; for Middle Peak: mainly QS-18 and desglucosyl-QS-17 family, negative control 50%; for Right Peak: mainly QS-21 family, negative control 26%.

The nature of assay [5]: Experiment 6-3: screening of rhamnosidases for derhamnosylation of saponins in crude bark extract (80%), relative % of Left, Middle and Right Peak by UV HPLC. The following applies: CBE 80%, pH 7.4, 30 degC, 19.5 h; for Left Peak: mainly QS-17 family, negative control 27%; for Middle Peak: mainly QS-18 and desglucosyl-QS-17 family, negative control 48%; for Right Peak: mainly QS-21 family, negative control 26%. The gist of the method: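 Clarified lysates of expressed rhamnosidase variants were incubated with crude bark extract (pH 7.4, final 80%) at 30 degC with shaking for 19.5 h, then quenched with MeCN+2% AcOH. UV HPLC gave relative % of Left (QS-17), Middle (QS-18/desglucosyl-QS-17) and Right (QS-21) peaks.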

Assay [6] in a line: Experiment 6-1: specificity of rhamnosidases towards other rhamnose residues (C3 saccharide rhamnose, C28 saccharide rhamnose). As to conditions: TBE 2%, pH 7.5, 30 degC, 18 h; LCMS/MS; negative controls 0.18, 0.17.

These results are taken from US20240026407A1, “MODIFICATION OF SAPONINS” (GLAXOSMITHKLINE BIOLOGICALS SA, priority 2020, published 2024).

B1: 992 (protein, listed as Roseburia intestinalis)
chain: MGKIYAAKTNHITNPIGFNMDSIAFSWKVKGCRGQEQKYARIVISKNKTFTDICYDTGETELDSLSTRVEFEIQPYTRYYWKVIVTTDVEEVIESDVQFFETAKMDEPWTGRWITCDSSQERHPIFSKRIEPKKEVKSARLYICGLGLYEAYFLGENKENPKKIGDEYLTPYCNNYDRWIQYQTYDITEQAERGGVLSVLLGNGWYKGRFGFNDPEREAYYGDEWKLIAEVHIEYKDGTKDVISSDETWSVTRSNLWFSNIYDGERRDDTLPPVEESPARIAKAPKGRLMERLSLPVKVQEEMKPAELIHTPAGEDVFDLGQEITGIFQLRVNEPSGTIIRIQTGEILQDGCFYNENLRTALSEYVYVSDGMEKVIIPHFTYYGYRYVKVSGVTNLSCEDFMAIVLYSDYESIGTVETGSELVNKLISNIEWGMKGNFLDVPTDCPQRDERMGWTGDTQVFSATASYLADTYAFYRKYLYDLYQEQLLAGGMVPEIVPTFGPTKCSCAWGDAACIIPWNVYLFSGDKTILENQIESMKAWVDYIRRIDGDHHGWRQVFHYGDWLALDRTGAAANSVYGATDEAYIADIYYAASAQIVAKAAEVLGLEETRQEYHKIADRQWQVVKEEYFTATGRCAVKTQTGLILALKYHLSENEELTREMLKKLLRDNKNKLNTGFVGTPLLCNVLTDHGMTDAAYRLLLNEEYPGWLHEVKLGATTVWERWNSLDESGHVSSTGMNSLNHYSYGAILEWIFRHAAGIDVMEQSPGGKVMRISPKVNSELKYVKAVYDSATGCYQCGWEILEGNKITITVTVPFGGKAEVVLPYAPECIYEDIENPLFEAVENGICHVKAGEYEVVYEASEPLKKRYSIDSTMEELLNHPDIRAFLSQMVEVDMIPDIAYGLSLRDVAKTFAGEIKPDEAQMLDKALAKF
Turning to B1, the “QS-17 (PAR %)” value in assay [1] is 0.000%. Further, in assay [2], the “Peak75 (PAR %)” value is 0.000%. In addition, the “Peak57 (PAR %)” value in assay [3] is 0.000%. Further, in assay [4], the “Left Peak” value is 7%, the “Middle Peak” value turned out to be 62% and the “Right Peak” value is 31%. For the same molecule, in assay [5], the “Left Peak” value is recorded as 21%, the “Middle Peak” value is on record as 49% and the “Right Peak” value was determined as 30%. Further, in assay [6], the “ratio PP/QS-21” value came to 0.20.

B2: 1077 (protein, listed as Bacillus sp.)
chain: MAGRNWNASWIWGGQEESPRNEWRCFRGSFDAPASVEGPAMLHITADSRYVLFVNGEQVGRGPVRSWPKEQFYDSYDIGGQLRPGVRNTIAVLVLHFGVSNFYYLRGRGGLIAEIEADGRTLAATDAAWRTERLGGQRSNSPRMACQQGFGEVIDARELAEDWALPAFDDGGWAQARSIGPAGTAPWTSLVPRDIPFLTEEKLYPASIQSLSRVKAPKYAAALDLRNQMVPESVNHANPVSYCGYVATILTLETSGVVTLGFPTGVRGSGVWVDGVLQTEWTGVQPERYYSLNLAAGEHLVLVDITSSDHGGSSHFAIDSEAAFTLRSPAGDNGVPLATIGTFDQSEYIDHRPGRRMQTDHPDYRALPEAAPTAAALEAFASWVKPFEPSLYTEENVFGSNVWRTLAERRAVPRSVLNAILPVPEPGVLPVFEDGDCELVIDLGAERSGFIGFELEAPAGTIIDAYGVEYMREGYTQHTYGLDNTFRYICREGRQSYVSPVRRGFRYLFLTVRGNSAPVKLHEIYIRQSTYPVAEQGSFRCSDALLNATWEISRHTTRLCMEDTFVDCPSYEQVFWVGDSRNEALVNYYVFGETEIVERCLNLVPGSADETPLYLDQVPSAWSSVIPNWTFFWILACREYAAHTGNEAFAARIWPAVKHTLTHYLEHIDDSGLLNMAGWNLLDWAPIDQPNEGIVTHQNLFLVKALRDSRALAAAAGATEEADAFAARADLLAETINAVLWDEEKRAYIDCIHADGRRSDVYSMQTQVVAYLCGVAQGEREAVIEGYLSSPPPAFVQIGSPFMSFFYYEALEKAGRQTLMLDDIRRNYGQMLRYDATTCWEMYPNFAENRSNPDMLTRSHCHAWSAAPGYFLGSSILGVKRGADGWRTVDIAPQPCDLTWAEGVVPLPQGGHIAVSWEFVSAGKLKLRIEAPEDIEVNVTLPEGIEGEVTQVKYMS
On to B2, for which, in assay [1], the “QS-17 (PAR %)” value worked out at 3.964%. Moreover, the “Peak75 (PAR %)” value in assay [2] was 2.138%. In assay [3], the “Peak57 (PAR %)” value amounted to 2.532%. Also, in assay [4], the “Left Peak” value was 23%, the “Middle Peak” value worked out at 51% and the “Right Peak” value stood at 26%. In assay [5], the “Left Peak” value was determined as 26%, the “Middle Peak” value is given as 48% and the “Right Peak” value came to 27%. The “ratio PP/QS-21” value in assay [6] turned out to be 0.18.

B3: 1003 (protein, listed as Rahnella aquatilis)
chain: MPAVIRLTLNQESALSGVQQLPVLGWEIESRNRNVRQTAYRLQISQDQDFDNILLRGEWQESECSNNIPLTELMLTSSQHYFIRVQVRDNYGETSGWSSPAQMITGVLYPHEWLADFITAETSADKDNSHATLLRKSFVLNRAQDIQSAFIHVSALGLYELYLNGHKAGEDALTPGWTSYHNHLLYQTYDVTGHLEKGENVIGAILGAGWYKGDMGFSRHRNYYGERSALISQLVINYNDGSQEIVISDESWKGQDSAILFSEIYDGEIYDARREIPGWCTKDVSGEGWRPVSLVTHEKSTLVAQGSNTVRKMAEIKPVALITTPQGDTVIDFGQNLSGWVEFRVSGKAGDEVVLRHFEVLDADGNVYLDNLRTARQRTAYVLKGEGEEIWHPHFTWQGFRFVKVEEYPGQWDLNNFTAIVLHSAMEQTGHFACSNPQLNQLHHNILWGLKGNFVDVPTDCPQRDERLGWTGDAQIFCRTASYLMQTRNFFAKWLTDLRYDQTPEGGVPHVIPDILTGYCGKDRLLSEGGTHSASAWADAAVINPWTMYLMYGDTCVLENQYASMKGWIDFMTAHAENHIWHYKLQFGDWVALDAKEGSYFGATPNDLTCTAYYAYSTQLFAKAAKVLNRTEDYDHYHALYQAIVRRFQEAFFTPSGQLAARTQTAHILALYFNLVPDEFRQRTTDTLVELLNEHDGHLVTGFVGTPYFCHALSQNGRTKEAWNLLLKEDFPSWLYQVKAGATTVWEHWDGIKPDGSMWSADMNSFNHYAYGAVGEWLYRVAAGIEADEAQPGFKHFIIKPLTGGGLSWLDTRYQSIYGAIGVRWEVSGQTVFLNVTVPANTSATVVLTDGQSVQEADGIDFARCAEGYTAEVGSGEYRIEYRLV
For the molecule B3, the “QS-17 (PAR %)” value in assay [1] was determined as 0.000%. The “Peak75 (PAR %)” value in assay [2] was determined as 0.000%. The “Peak57 (PAR %)” value in assay [3] is recorded as 0.000%. Moreover, in assay [4], the “Left Peak” value was found to be 7%, the “Middle Peak” value is given as 63% and the “Right Peak” value is recorded as 31%. For the same molecule, in assay [5], the “Left Peak” value was 27%, the “Middle Peak” value is given as 47% and the “Right Peak” value amounted to 26%. In addition, in assay [6], the “ratio PP/QS-21” value is 0.19.

B4: 993 (protein)
chain: MKKLLLCLCFLAIGFLSNAKIKPTQLTCEYLKNPSVVDVLQPRLAWINVADAGERGQEQTAYQIRVASLKEKLENADLWDSGKVKDDASIRVKYDGEKLVSRQDCWWQVRVWDKNNEVSEWSEPAYWHMGLLNENDWTANWIGVPWQGEETLPKPASPAATLPGELPPPAPLFRKEFNATKQVEKAVAYVTGLGYFELYLNGEKVGDDVLVPNQTNYGKRPALTQQYIPLDDNFKEYKVMYLAYDISDQLVSGANTFGAILGNGFYNPSKHWALGYGTPRLLVQVHVAYTDGTEELIVSDESWKVSKSPILMDMVYYGEHYDARLEQDGWCSAGFDDSAWENAILRKAPEGKLVAHTAHPDKVYETLQPVRIEKMYNGNYKVDFGEEISGWVRLKNVEGPEGHKVKINYLSNNYSGDNSYIFKGEGKENYAARFNWFVFREVEIENWPGVLAPENICAEAINTYIEESAHFETSNPLFNQVNKIWKRSQTDNMHGGIASDCPHRERSPYTGDGQVACVTVMHNFDAQNFYYKWIHDMIGAQNVKTGYVPNGAPWQPGCGGGVAWGAAINIIPWEFYVHYGAVDMLEEAYEPMKEYVRYMQTWVNNEGIMNSQRVGLDGNVLQWFNLGEWVTPGDLPPDSLVHTFYFWRCADITAKTAEILGKRKEAKRNRELAETTQSAFHKCFFDAEKGTYGNAGANIFALKMGVPENEYQRVINALKANIKKNKGHLDTGIFGTQFFFEVLSENGLHELAYEAMNKKEEPGYGRWLTLGATTSWENWNTDGSHNHPMFGGGLVWLYRKLAGMQADEKNPGYRHIIFHPQPIKELEFAEYFNKTPYGKAGIKWQQTEGKLSVGVTVPVGCTATVILPGGHFLADGKAMEKVAEVQLVSQKEDELIIKVGAGNYQFSN
modifications: Draconibacterium orientale
B4: the “QS-17 (PAR %)” value in assay [1] was 3.836%. For the same molecule, the “Peak75 (PAR %)” value in assay [2] was 2.211%. Also, the “Peak57 (PAR %)” value in assay [3] came to 1.129%. In assay [4], the “Left Peak” value turned out to be 18%, the “Middle Peak” value is recorded as 56% and the “Right Peak” value was found to be 27%. Further, in assay [5], the “Left Peak” value stood at 25%, the “Middle Peak” value amounted to 49% and the “Right Peak” value was found to be 26%. The “ratio PP/QS-21” value in assay [6] is on record as 0.18.
